These results are taken from patent US20240301062A1.

As a reminder, the Kd is the concentration at which binding is half-saturated. A low value points to a tighter complex. One may read the koff as the rate constant with which the complex falls apart. A word on the kon: it is a measure of how fast the partners come together. Low values mean slower complex formation, high ones faster complex formation.

For test [1], the target named is CD3ε/δ (SPR analyte) (UniProt P07766). As to the kind of experiment: SPR, antibody captured by anti-human Fc. (In SPR one partner is held on a chip, and binding of the other changes the refractive index at the surface.)
Test [2] has the same target. As to the kind of experiment: SPR, antibody captured by anti-human Fc. This is another data set of the same source.
The target is the same in test [3]. Description: SPR.

Chain of CD3ε/δ (SPR analyte) (P07766 23-126, stated change not applied, chain 1 of 2): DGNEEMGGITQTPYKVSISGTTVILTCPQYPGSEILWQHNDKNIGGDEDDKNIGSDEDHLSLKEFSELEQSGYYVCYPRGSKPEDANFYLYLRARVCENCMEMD
Chain of CD3ε/δ (SPR analyte) (P04234 22-105, stated change not applied, chain 2 of 2, further chain): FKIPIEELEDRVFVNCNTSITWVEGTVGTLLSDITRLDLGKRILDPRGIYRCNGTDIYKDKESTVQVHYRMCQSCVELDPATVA

B1: chimeric sp34 (ch-sp34) (antibody, V domains shown)
VH: EVQLVESGGGLVQPKGSLKLSCAASGFTFNTYAMNWVRQAPGKGLEWVARIRSKYNNYATYYADSVKDRFTISRDDSQSILYLQMNNLKTEDTAMYYCVRHGNFGNSYVSWFAYWGQGTLVTVSS
VL: QAVVTQESALTTSPGETVTLTCRSSTGAVTTSNYANWVQEKPDHLFTGLIGGTNKRAPGVPARFSGSLIGDKAALTITGAQTEDEAIYFCALWYSNLWVFGGGTKLTVL
As to B1, in test [1], the Kd came out at 27.1 nM, the koff was 0.00296 s⁻¹ and the kon is 109000 M⁻¹ s⁻¹.

B2: humanized sp34 BG53P (antibody, V domains shown)
VH: EVQLVESGGGLVQPGGSLRLSCAASGFTFNTYAMNWVRQAPGKGLEWVARIRSKYNNYATYYADSVKDRFTISRDDAKSSLYLQMNSLRAEDTAMYYCVRHGNFGNSYVSWFAYWGQGTLVTVSS
VL: QAVVTQSPATLSVSPGERATLSCRSSTGAVTTSNYANWVQEKPGQLFTGLIGGTNKRAPGIPARFSGSLSGDEATLTISSLQSEDFAIYFCALWYSNLWVFGGGTKVEIK
As for B2, in test [1], the Kd was 25.4 nM, the off-rate (koff) was found to be 0.00252 s⁻¹ and the on-rate constant (kon) was found to be 99300 M⁻¹ s⁻¹. In test [2], the equilibrium dissociation constant (Kd) is 9.62 nM, the koff was 0.00105 s⁻¹ and the association rate constant (kon) amounted to 109000 M⁻¹ s⁻¹.

B3: humanized sp34 BG56P (antibody, V domains shown)
VH: EVQLVESGGGLVQPGGSLRLSCAASGFTFNTYAMNWVRQAPGKGLEWVARIRSKYNNYATYYADSVKDRFTISRDDAKNSLYLQMNSLRAEDTAVYYCVRHGNFGNSYVSWFAYWGQGTLVTVSS
VL: EIVLTQSPATLSVSPGERATLSCRSSTGAVTTSNYANWVQQKPGQAPRGLIGGTNKRAPGIPARFSGSLSGDEATLTISSLQSEDFAVYYCALWYSNLWVFGGGTKVEIK
In test [2], B3 returned a dissociation constant Kd of 18.2 nM, a dissociation rate constant (koff) of 0.00112 s⁻¹ and a kon of 61600 M⁻¹ s⁻¹. In test [3], this molecule came in with a Kd of 18.2 nM, a koff of 0.00112 s⁻¹ and a kon of 61600 M⁻¹ s⁻¹.

B4: humanized sp34 scFv BG561P (scFv-Fc) (Fc fusion, not shown: a dimerising Fc or GST)
scFv: EVQLVESGGGLVQPGGSLRLSCAASGFTFNTYAMNWVRQAPGKGLEWVARIRSKYNNYATYYADSVKDRFTISRDDAKNSLYLQMNSLRAEDTAVYYCVRHGNFGNSYVSWFAYWGQGTLVTVSSGGGGSGGGGSGGGGSEIVLTQSPATLSVSPGERATLSCRSSTGAVTTSNYANWVQQKPGQAPRGLIGGTNKRAPGIPARFSGSLSGDEATLTISSLQSEDFAVYYCALWYSNLWVFGGGTKVEIK
In test [3], B4 displayed a dissociation constant (Kd) of 25.9 nM, a koff of 0.00188 s⁻¹ and an on-rate (kon) of 72500 M⁻¹ s⁻¹.
